The text below walks through data of PMC5755487, “Combining Chemical Cross-linking and Mass Spectrometry of Intact Protein Complexes to Study the Architecture of Multi-subunit Protein Assemblies” (Journal of Visualized Experiments : JoVE, 2017).

Several values for one entry are separate records, joined by “and”; a condition that tells them apart may be missing. Equal entries are not always repeated.

First the molecules themselves.
B1: small subunit of carbamoyl phosphate synthase (CPS) from Escherichia coli (enzyme)
chain: MIKSALLVLEDGTQFHGRAIGATGSAVGEVVFNTSMTGYQEILTDPSYSRQIVTLTYPHIGNVGTNDADEESSQVHAQGLVIRDLPLIASNFRNTEDLSSYLKRHNIVAIADIDTRKLTRLLREKGAQNGCIIAGDNPDAALALEKARAFPGLNGMDLAKEVTTAEAYSWTQGSWTLTGGLPEAKKEDELPFHVVAYDFGAKRNILRMLVDRGCRLTIVPAQTSAEDVLKMNPDGIFLSNGPGDPAPCDYAITAIQKFLETDIPVFGICLGHQLLALASGAKTVKMKFGHHGGNHPVKDVEKNVVMITAQNHGFAVDEATLPANLRVTHKSLFDGTLQGIHRTDKPAFSFQGHPEASPGPHDAAPLFDHFIELIEQYRKTAK
notes: carbamoyl phosphate synthase small subunit, Escherichia coli; also called small CPS subunit
B2: large subunit of carbamoyl phosphate synthase (CPS) from Escherichia coli (enzyme)
chain: MPKRTDIKSILILGAGPIVIGQACEFDYSGAQACKALREEGYRVILVNSNPATIMTDPEMADATYIEPIHWEVVRKIIEKERPDAVLPTMGGQTALNCALELERQGVLEEFGVTMIGATADAIDKAEDRRRFDVAMKKIGLETARSGIAHTMEEALAVAADVGFPCIIRPSFTMGGSGGGIAYNREEFEEICARGLDLSPTKELLIDESLIGWKEYEMEVVRDKNDNCIIVCSIENFDAMGIHTGDSITVAPAQTLTDKEYQIMRNASMAVLREIGVETGGSNVQFAVNPKNGRLIVIEMNPRVSRSSALASKATGFPIAKVAAKLAVGYTLDELMNDITGGRTPASFEPSIDYVVTKIPRFNFEKFAGANDRLTTQMKSVGEVMAIGRTQQESLQKALRGLEVGATGFDPKVSLDDPEALTKIRRELKDAGADRIWYIADAFRAGLSVDGVFNLTNIDRWFLVQIEELVRLEEKVAEVGITGLNADFLRQLKRKGFADARLAKLAGVREAEIRKLRDQYDLHPVYKRVDTCAAEFATDTAYMYSTYEEECEANPSTDREKIMVLGGGPNRIGQGIEFDYCCVHASLALREDGYETIMVNCNPETVSTDYDTSDRLYFEPVTLEDVLEIVRIEKPKGVIVQYGGQTPLKLARALEAAGVPVIGTSPDAIDRAEDRERFQHAVERLKLKQPANATVTAIEMAVEKAKEIGYPLVVRPSYVLGGRAMEIVYDEADLRRYFQTAVSVSNDAPVLLDHFLDDAVEVDVDAICDGEMVLIGGIMEHIEQAGVHSGDSACSLPAYTLSQEIQDVMRQQVQKLAFELQVRGLMNVQFAVKNNEVYLIEVNPRAARTVPFVSKATGVPLAKVAARVMAGKSLAEQGVTKEVIPPYYSVKEVVLPFNKFPGVDPLLGPEMRSTGEVMGVGRTFAEAFAKAQLGSNSTMKKHGRALLSVREGDKERVVDLAAKLLKQGFELDATHGTAIVLGEAGINPRLVNKVHEGRPHIQDRIKNGEYTYIINTTSGRRAIEDSRVIRRSALQYKVHYDTTLNGGFATAMALNADATEKVISVQEMHAQIK
notes: carbamoyl phosphate synthase large subunit, Escherichia coli; also called large CPS subunit

The target of data set [1] is RvB2 subunit of the RvB1/B2 complex from Chaetomium thermophilum (Chaetomium thermophilum). In words: native MS; purified complex exchanged into 200 mM ammonium acetate, nano-electrospray, Q-ToF instrument; intact complexes and sub-complexes.
For data set [2], the target named is B2. The description is as above. The conditions noted are these: both partners purified.
Data set [3] deals with the molecule itself. In words: cross-linking; purified complex with BS3 (0.5-5 mM titrated), 25 °C, 1 h; SDS-PAGE, in-gel trypsin digestion, LC-MS/MS, pLink search.

In data set [1], “RvB1 subunit of the RvB1/B2 complex from Chaetomium thermophilum (natural protein)” registered a stoichiometry N (RvB1 per RvB2 (3:3)) of 1 and a stoichiometry N (RvB1 per RvB2 (6:6)) of 1.
On to B1, for which the stoichiometry N (in general, the number of molecules, sites or subunits per partner or assembly) in data set [2] is 1 small per large subunit (1:1) and 1 small per large subunit (2:2).
Consider B2, for which the binding result in data set [3] is on record as “binds”.
